Laboratory results published in PMC13572001, “Sequence-based artificial intelligence-guided inhibitory peptides to counteract AAV neutralizing antibodies in gene therapy” (Molecular Therapy Advances, 2026).

Assay: Safety assessment after i.p. peptide mixture in mice
Details: positive control, same conditions, day 7
Protocol: To assess potential immunogenicity following peptide administration, we performed enzyme-linked immunosorbent assays (ELISA) to measure peptide-specific IgG responses.
(E) Detection of peptide-specific IgG in plasma by ELISA following peptide or control antigen administration.
Mice were injected (i.p.) with human-derived or viral-derived peptide mixtures, or OVA protein (InvivoGen #vac-pova). Plasma was collected at 24 h for cytokine analysis (BD #552364) and at day 7 for peptide- or OVA-specific antibody detection via direct ELISA.

B1: OVA: OVA protein (InvivoGen #vac-pova), positive control (protein, UniProt P01012 2-386, looked up)
Ovalbumin: GSIGAASMEFCFDVFKELKVHHANENIFYCPIAIMSALAMVYLGAKDSTRTQINKVVRFDKLPGFGDSIEAQCGTSVNVHSSLRDILNQITKPNDVYSFSLASRLYAEERYPILPEYLQCVKELYRGGLEPINFQTAADQARELINSWVESQTNGIIRNVLQPSSVDSQTAMVLVNAIVFKGLWEKAFKDEDTQAMPFRVTEQESKPVQMMYQIGLFRVASMASEKMKILELPFASGTMSMLVLLPDEVSGLEQLESIINFEKLTEWTSSNVMEERKIKVYLPRMKMEEKYNLTSVLMAMGITDVFSSSANLSGISSAESLKISQAVHAAHAEINEAGREVVGSAEAGVDAASVSEEFRADHPFLFCIKHIATNAVLFFGRCVSP
OVA-specific antibody response (direct ELISA): robust antibody response
